The values below come from PMC7041687 (The Journal of Cell Biology, 2019).

By Kd is commonly meant the concentration at which binding is half-saturated.

T1: Ana2 full length, wild type, nonphosphorylated (purified) (Drosophila, UniProt Q9XZ31 1-420)
T1 sequence (looked up): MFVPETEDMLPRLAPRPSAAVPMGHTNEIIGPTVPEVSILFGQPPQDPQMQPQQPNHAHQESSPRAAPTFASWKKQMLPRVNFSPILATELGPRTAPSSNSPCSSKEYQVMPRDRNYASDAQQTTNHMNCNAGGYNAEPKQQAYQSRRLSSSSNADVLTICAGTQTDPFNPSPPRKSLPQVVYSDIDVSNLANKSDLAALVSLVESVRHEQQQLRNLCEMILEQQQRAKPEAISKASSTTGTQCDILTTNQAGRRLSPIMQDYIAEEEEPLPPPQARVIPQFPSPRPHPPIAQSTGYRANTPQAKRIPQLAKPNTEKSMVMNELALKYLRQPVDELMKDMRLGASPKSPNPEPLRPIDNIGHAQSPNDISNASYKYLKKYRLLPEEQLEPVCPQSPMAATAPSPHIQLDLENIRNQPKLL

T2: Ana2 S38A full length, nonphosphorylated (purified) (Drosophila, UniProt Q9XZ31 1-420, S38A)
T2 sequence (looked up): T1 sequence (looked up) with S38A

B1: Ana2 1–60 (amino acids 1–60), nonphosphorylated (domain or fragment, Drosophila, UniProt Q9XZ31 1-60, looked up)
chain: MFVPETEDMLPRLAPRPSAAVPMGHTNEIIGPTVPEVSILFGQPPQDPQMQPQQPNHAHQ
B2: Ana2 1–60 prephosphorylated with purified Plk4 (domain or fragment, Drosophila, UniProt Q9XZ31 1-60, looked up)
chain: B1 chain
modifications: also: prephosphorylated by Plk4, sites not listed
B3: His6-Thrombin-Sas4-606 (Sas4 amino acids 606–901) (domain or fragment, Drosophila, UniProt Q9VI72 606-901, looked up)
chain: RNIARLAPKVLPSATMSDILDENGRRTQSLDGTAGKPAKQREAQNRRQSSGSAQVRSRSRSLSRNKKTPYALDESYASSSSVESEEVQPPVTAPKAATPPPAANSSSDFKREITNADGSKDIWYPNGNLKKISADGMNLRMLYFNKDIKETNIREGTVKYYYAETNTWHTSYLDGLEILEFPNGQTEHRRKDGTVEIHFPNNSIKIVDPSDTEKLEEWRYADGTHLVQLRNGDKILNLPNGQKEIHTKLNKRREYPDGTVKLVYPDGSQETRYSNGRVRLKDKDGKLIMDTDYAKY

Where a chain is given by its changes, count along the chain named. Ends that are not written are not given here.

Assay in all cases: BLI
The target of experiment [1] is B3.
Experiment [2] addresses T1, Ana2 full length, wild type, ….
Experiment [3] addresses T2, Ana2 S38A full length, ….

As to B1, the equilibrium dissociation constant (Kd) in experiment [1] turned out to be 134 nM.

In the case of B2, the Kd in experiment [1] turned out to be 72 nM.

Regarding B3, the Kd in experiment [2] stood at 26 nM; in experiment [3], 31 nM.
